What all share (details): Homo sapiens
Compound in series [1]: N=C(N)NCCC[C@H](NC(=O)[C@H](Cc1c[nH]c2ccccc12)NC(=O)[C@@H](N)CS)C(=O)O
Briefly: Allosteric activation of SIRT1 (unknown origin) expressed in bacterial expression system assessed as Vmax for substrate at 40 uM using Fluorophore labeled-Arg-His-Lys-Lys (Ac) as substrate incubated for 30 mins in presence of NAD+ by fluorimetric method (reference value: 1666.67 uM).

Compound in series [2]: N=C(N)NCCC[C@H](NC(=O)[C@H](Cc1c[nH]c2ccccc12)NC(=O)[C@@H](N)CS)C(=O)O
Put plainly: Allosteric activation of SIRT1 (unknown origin) expressed in bacterial expression system assessed as Vmax for substrate at 80 uM using Fluorophore labeled-Arg-His-Lys-Lys (Ac) as substrate incubated for 30 mins in presence of NAD+ by fluorimetric method (reference value: 1666.67 uM).

Compound in series [3]: N=C(N)NCCC[C@H](NC(=O)[C@H](Cc1c[nH]c2ccccc12)NC(=O)[C@@H](N)CS)C(=O)O
Put plainly: Allosteric activation of SIRT1 (unknown origin) expressed in bacterial expression system assessed as Vmax for substrate at 120 uM using Fluorophore labeled-Arg-His-Lys-Lys (Ac) as substrate incubated for 30 mins in presence of NAD+ by fluorimetric method (reference value: 1666.67 uM).

Compound in series [4]: N=C(N)NCCC[C@H](NC(=O)[C@H](Cc1c[nH]c2ccccc12)NC(=O)[C@@H](N)CS)C(=O)O
Briefly: Allosteric activation of SIRT1 (unknown origin) expressed in bacterial expression system assessed as Vmax for substrate at 160 uM using Fluorophore labeled-Arg-His-Lys-Lys (Ac) as substrate incubated for 30 mins in presence of NAD+ by fluorimetric method (reference value: 1666.67 uM).

Compound in series [5]: N=C(N)NCCC[C@H](NC(=O)[C@H](Cc1c[nH]c2ccccc12)NC(=O)[C@@H](N)CS)C(=O)O
Put plainly: Allosteric activation of SIRT1 (unknown origin) expressed in bacterial expression system assessed as apparent Km for substrate at 40 uM using Fluorophore labeled-Arg-His-Lys-Lys (Ac) as substrate incubated for 30 mins in presence of NAD+ by fluorimetric method (reference value: 507 uM).

Compound in series [6]: N=C(N)NCCC[C@H](NC(=O)[C@H](Cc1c[nH]c2ccccc12)NC(=O)[C@@H](N)CS)C(=O)O
Put plainly: Allosteric activation of SIRT1 (unknown origin) expressed in bacterial expression system assessed as apparent Km for substrate at 80 uM using Fluorophore labeled-Arg-His-Lys-Lys (Ac) as substrate incubated for 30 mins in presence of NAD+ by fluorimetric method (reference value: 507 uM).

Compound in series [7]: N=C(N)NCCC[C@H](NC(=O)[C@H](Cc1c[nH]c2ccccc12)NC(=O)[C@@H](N)CS)C(=O)O
Briefly: Allosteric activation of SIRT1 (unknown origin) expressed in bacterial expression system assessed as apparent Km for substrate at 120 uM using Fluorophore labeled-Arg-His-Lys-Lys (Ac) as substrate incubated for 30 mins in presence of NAD+ by fluorimetric method (reference value: 507 uM).

Compound in series [8]: N=C(N)NCCC[C@H](NC(=O)[C@H](Cc1c[nH]c2ccccc12)NC(=O)[C@@H](N)CS)C(=O)O
Briefly: Allosteric activation of SIRT1 (unknown origin) expressed in bacterial expression system assessed as apparent Km for substrate at 160 uM using Fluorophore labeled-Arg-His-Lys-Lys (Ac) as substrate incubated for 30 mins in presence of NAD+ by fluorimetric method (reference value: 507 uM).

Broadly, the Km is the substrate concentration at which the rate is half of its maximum.

B1: NAD-dependent protein deacetylase sirtuin-1 (Homo sapiens), Q96EB6 (protein)
chain: MADEAALALQPGGSPSAAGADREAASSPAGEPLRKRPRRDGPGLERSPGEPGGAAPEREVPAAARGCPGAAAAALWREAEAEAAAAGGEQEAQATAAAGEGDNGPGLQGPSREPPLADNLYDEDDDDEGEEEEEAAAAAIGYRDNLLFGDEIITNGFHSCESDEEDRASHASSSDWTPRPRIGPYTFVQQHLMIGTDPRTILKDLLPETIPPPELDDMTLWQIVINILSEPPKRKKRKDINTIEDAVKLLQECKKIIVLTGAGVSVSCGIPDFRSRDGIYARLAVDFPDLPDPQAMFDIEYFRKDPRPFFKFAKEIYPGQFQPSLCHKFIALSDKEGKLLRNYTQNIDTLEQVAGIQRIIQCHGSFATASCLICKYKVDCEAVRGDIFNQVVPRCPRCPADEPLAIMKPEIVFFGENLPEQFHRAMKYDKDEVDLLIVIGSSLKVRPVALIPSSIPHEVPQILINREPLPHLHFDVELLGDCDVIINELCHRLGGEYAKLCCNPVKLSEITEKPPRTQKELAYLSELPPTPLHVSEDSSSPERTSPPDSSVIVTLLDQAAKSNDDLDVSESKGCMEEKPQEVQTSRNVESIAEQMENPDLKNVGSSTGEKNERTSVAGTVRKCWPNRVAKEQISRRLDGNQYLFLPPNRYIFHGAEVYSDSEDDVLSSSSCGSNSDSGTCQSPSLEEPMEDESEIEEFYNGLEDEPDVPERAGGAGFGTDGDDQEAINEAISVKQEVTDMNYPSNKS
Regarding B1, the Vmax in series [1] worked out at 1430 µM; in series [2], 1250 µM; in series [3], 1110 µM; in series [4], 1110 µM. The Km in series [5] came out at 236 µM; in series [6], 168 µM; in series [7], 72 µM; in series [8], 75 µM.

These data come from ChEMBL document CHEMBL4007386, “Design, synthesis of allosteric peptide activator for human SIRT1 and its biological evaluation in cellular model of Alzheimer's disease” (Eur J Med Chem, 2017).
